Source: patent publication US20240343811A1 (SHANDONG SIMCERE BIOPHARMACUTICAL, published 2024)
Numbering of substitutions follows the chain as printed. Like-named read-outs stand apart in the source and are kept apart here. Values belong to the binder of their own block, whether it stands above or below them.

Key:
[1] = target: T1, cynomolgus monkey CD16, full length, on FlpinCHO cells (cynomolgus monkey, UniProt Q8SPW2 17-254); assay: FACS on FlpinCHO cells
T1 construct: also called FlpinCHO-cyno CD16; Flipin CHO-cyno CD16
T1 sequence (Q8SPW2 other isoform, or with tags, fused parts or gaps limits assumed): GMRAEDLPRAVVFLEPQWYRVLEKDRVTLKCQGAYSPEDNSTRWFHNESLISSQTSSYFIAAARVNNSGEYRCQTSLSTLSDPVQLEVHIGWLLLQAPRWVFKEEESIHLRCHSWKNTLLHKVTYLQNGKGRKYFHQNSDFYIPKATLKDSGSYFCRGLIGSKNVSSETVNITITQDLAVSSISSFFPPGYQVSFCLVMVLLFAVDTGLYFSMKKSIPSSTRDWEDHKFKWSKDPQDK
Method: (§1) The required cells were scale-up cultured in a T-75 cell culture flask to the logarithmic growth phase. The medium was aspirated, and the cells were washed twice with a PBS buffer and then digested with trypsin. After the digestion was terminated, the cells were washed twice with the PBS buffer. The cells were counted, and then the cell pellet was resuspended with a [PBS+2% (w/w) BSA] blocking solution to 2×10⁶ cells/ml, and added to a 96-well FACS reaction plate at 50 μl/well. […] 50 μl/well of the antibody to be detected was added at different concentrations, and incubated on ice for 1 hour. […] The mixture was centrifuged and washed 5 times with PBS, and FACS (FACS Canto II, purchased from BD Company) was used for detection and result analysis. Data analysis was performed by software (CellQuest) to obtain the mean fluorescence intensity (MFI) of the cells. Then, software (GraphPad Prism8) was used for analysis, data fitting and EC50 value calculation.
Flipin CHO-cyno CD16 cells were subjected to FACS detection and data analysis according to the method of Example 3.1.

[2] = target: T2, Human CD16a (158F)-his (human); assay: SPR (Biacore), antibody captured on Protein A
T2 construct: entry holds ECD, AVI tag, linker and His tag
How it was run: (§2)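 Protein A–captured antibody was probed with CD16-his ECD in HBS-EP+ at 25 °C: five 2-fold dilutions from 200 nM, 240 s at 30 μL/min, dissociation up to 600 s. Glycine pH 1.5 regenerated the chip. Apparent KD came from a double-referenced 1:1 Langmuir fit.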

[3] = target: T3, human CD16a (158V), full length, on cells (human, UniProt P08637 17-254); assay: cell-based or functional assay
[4] = target: T4, human CD16a (158F), full length, on FlpinCHO cells (human, UniProt P08637 17-254); assay: FACS on FlpinCHO cells
Method: as §1
(§3) The binding of a humanized antibody to FlpinCHO-human CD16a cells was detected according to the method of Example 3.1.

[5] = target: T3, human CD16a (158V), full length, on …; assay: FACS on FlpinCHO cells
Method: as §1, §3

[6] = target: T5, human CD16b (NA1), full length, on FlpinCHO cells (human, UniProt O75015 17-200); assay: FACS on FlpinCHO cells
T5 construct: also called FlpinCHO-human CD16b (NA1)
T5 chain: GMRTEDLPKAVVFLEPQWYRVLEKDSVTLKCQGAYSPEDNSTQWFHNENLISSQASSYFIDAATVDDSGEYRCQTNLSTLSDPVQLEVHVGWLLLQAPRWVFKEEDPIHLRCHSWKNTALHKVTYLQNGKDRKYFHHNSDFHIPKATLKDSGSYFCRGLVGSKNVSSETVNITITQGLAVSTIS
Method: as §1
(§4) The binding of an antibody to be detected to FlpinCHO-human CD16b cells was detected according to the method of Example 3.1.

[7] = target: T6, human CD16b (NA2), full length, on FlpinCHO cells (human, UniProt O75015 17-200); assay: FACS on FlpinCHO cells
T6 construct: also called FlpinCHO-human CD16b (NA2)
T6 chain: T5 chain with R20S, N49S, D66N, V90I
Method: as §1, §4

[8] = target: T7, Human CD16a (158V)-his (human); assay: SPR (Biacore), antibody captured on Protein A
T7 construct: entry holds ECD, AVI tag, linker and His tag
How it was run: as §2

[9] = target: T8, Human CD16b (NA1)-his (human); assay: SPR (Biacore), antibody captured on Protein A
T8 construct: entry holds ECD, linker, His tag and AVI tag
T8 chain: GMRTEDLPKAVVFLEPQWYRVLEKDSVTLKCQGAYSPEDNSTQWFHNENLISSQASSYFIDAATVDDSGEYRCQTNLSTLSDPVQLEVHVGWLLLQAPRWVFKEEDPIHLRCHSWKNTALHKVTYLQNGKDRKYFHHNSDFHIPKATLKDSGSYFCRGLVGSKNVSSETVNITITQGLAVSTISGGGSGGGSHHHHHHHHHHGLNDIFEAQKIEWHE
How it was run: as §2

[10] = target: T5, human CD16b (NA1), full length, on …; assay: FACS on FlpinCHO cells
How it was run: (§5)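 Trypsin-detached FlpinCHO cells expressing full-length CD16b were blocked in PBS+2% BSA and incubated on ice for 1 hour with antibody at varying concentrations. Binding read by flow cytometry as MFI; EC50 from curve fitting.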

[11] = target: T6, human CD16b (NA2), full length, on …; assay: FACS on FlpinCHO cells
How it was run: as §5

[12] = target: T4, human CD16a (158F), full length, on …; assay: FACS, biotinylated antibody, +10 mg/mL human immunoglobulin
[13] = target: T3, human CD16a (158V), full length, on …; assay: as above
[14] = target: T9, CD16 on primary human NK cells (human, UniProt P08637 17-254); assay: FACS on human NK cells
T9 construct: whole, on cells; also called resting NK cells
Method: as §1
The binding of an antibody to be detected to freshly prepared human NK cells (Milestone Biotechnologies, catalog number: PB56-N-Custom) was detected according to the method of Example 3.1.

[15] = target: T4, human CD16a (158F), full length, on …; assay: FACS, biotinylated antibody
[16] = target: T3, human CD16a (158V), full length, on …; assay: FACS, biotinylated antibody
[17] = target: T3, human CD16a (158V), full length, on …; assay: cell-based or functional assay; remark: listed apart in the source
[18] = target: T4, human CD16a (158F), full length, on …; assay: FACS on FlpinCHO cells; remark: listed apart in the source
How it was run: (§6)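 Trypsinised cells in PBS + 2% BSA were incubated on ice for 1 hour with antibody at a range of concentrations. After washes, mean fluorescence intensity was read by flow cytometry. EC50 values were derived by curve fitting of MFI.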

[19] = target: T3, human CD16a (158V), full length, on …; assay: FACS on FlpinCHO cells; remark: listed apart in the source
How it was run: as §6

B2: VHH12-03 humanized VHH-Fc antibody (Fc fusion)
chain: EVQLVESGGGLVQPGGSLRLSCAASGITFSSYAMGWYRQAPGKQRELVAAINRFGLTNYVDSVKGRFTISRDNAKNSLYLQMNSLRAEDTAVYYCNTGGVYSHPDYYTGTYWGQGTMVTVSSEPKSSDKTHTCPPCPAPEEFGGPSVFLFPPKPKDTLMISRTPEVTCVVVAVSHEDPEVKFNWYVDGVEVHNAKTKPREEQYNSTYRVVSVLTVLHQDWLNGKEYKCKVSNKALPAPIEKTISKAKGQPREPQVYTLPPSREEMTKNQVSLTCLVKGFYPSDIAVEWESNGQPENNYKTTPPVLDSDGSFFLYSKLTVDKSRWQQGNVFSCSVMHEALHNHYTQKSLSLSPGK
EC50 [1]: 0.8 nM
Maximum mean fluorescence intensity [1]: 18000
Kd [2]: 55.7 nM
koff [2]: 0.0244 s⁻¹
kon [2]: 438000 M⁻¹ s⁻¹
EC50, activation activity for Jurkat cell [3]: 0.02 nM
Maximum fluorescence value [3]: 155000
EC50 [4]: 0.48 nM
Maximum mean fluorescence intensity [4]: 8810
EC50 [5]: 0.48 nM
Maximum mean fluorescence intensity [5]: 7750
EC50 [6]: 1.37 nM
Maximum mean fluorescence intensity [6]: 47300
Maximum mean fluorescence intensity [7]: 72700

B3: VHH12-02 humanized VHH-Fc antibody (Fc fusion)
chain: B2 chain with N58Y
EC50 [1]: 0.74 nM
Maximum mean fluorescence intensity [1]: 16900
Kd [2]: 75.1 nM
koff [2]: 0.0237 s⁻¹
kon [2]: 316000 M⁻¹ s⁻¹
EC50, activation activity for Jurkat cell [3]: 0.01 nM
Maximum fluorescence value [3]: 148000
EC50 [4]: 0.46 nM
Maximum mean fluorescence intensity [4]: 7440
EC50 [5]: 0.45 nM
Maximum mean fluorescence intensity [5]: 6600
EC50 [6]: 0.94 nM
Maximum mean fluorescence intensity [6]: 39700
Maximum mean fluorescence intensity [7]: 73300

B6: VHH04 VHH-Fc antibody (Fc fusion)
chain: QVQLVESGGGLVQAGGSLRLSCVGSSSTLTTYAVRWYRQAPGKQREWVAFISVDGNTNYPDSVKGRFIVSRDNAKNTVYLQMNNLKPEDTADYICRAGGQYWGQGTQVTVSSEPKSSDKTHTCPPCPAPEFEGGPSVFLFPPKPKDTLMISRTPEVTCVVVAVSHEDPEVKFNWYVDGVEVHNAKTKPREEQYNSTYRVVSVLTVLHQDWLNGKEYKCKVSNKALPAPIEKTISKAKGQPREPQVYTLPPSREEMTKNQVSLTCLVKGFYPSDIAVEWESNGQPENNYKTTPPVLDSDGSFFLYSKLTVDKSRWQQGNVFSCSVMHEALHNHYTQKSLSLSPGK
Kd [8]: 8.93 nM
koff [8]: 0.000738 s⁻¹
kon [8]: 82600 M⁻¹ s⁻¹
Kd [2]: 23.4 nM
koff [2]: 0.00128 s⁻¹
kon [2]: 54700 M⁻¹ s⁻¹
Kd [9]: 21.6 nM
koff [9]: 0.00265 s⁻¹
kon [9]: 122000 M⁻¹ s⁻¹
EC50 [10]: 1.33 nM
Maximum mean fluorescence intensity [10]: 41400
Maximum mean fluorescence intensity [11]: 351
binding result [11]: no binding (tested: 100 nM)
EC50 [12]: 1.51 nM
Maximum mean fluorescence intensity [12]: 7580
EC50 [13]: 1.51 nM
Maximum mean fluorescence intensity [13]: 10400
EC50 [14]: 0.74 nM
Maximum mean fluorescence intensity [14]: 2430
EC50 [15]: 0.32 nM
Maximum mean fluorescence intensity [15]: 6160
EC50 [16]: 0.65 nM
Maximum mean fluorescence intensity [16]: 9200
EC50, activation activity for Jurkat cell [17]: 0.03 nM
Maximum fluorescence value [17]: 161000
EC50 [18]: 0.66 nM
Maximum mean fluorescence intensity [18]: 7240
EC50 [19]: 0.68 nM
Maximum mean fluorescence intensity [19]: 7660

Next, values leading:

EC50 [1]: 0.64 nM
Maximum mean fluorescence intensity [1]: 18300
Kd [2]: 50.5 nM
koff [2]: 0.0307 s⁻¹
kon [2]: 607000 M⁻¹ s⁻¹
EC50, activation activity for Jurkat cell [3]: 0.01 nM
Maximum fluorescence value [3]: 162000
EC50 [4]: 0.47 nM
Maximum mean fluorescence intensity [4]: 9410
EC50 [5]: 0.47 nM
Maximum mean fluorescence intensity [5]: 8090
EC50 [6]: 1.37 nM
Maximum mean fluorescence intensity [6]: 47200
Maximum mean fluorescence intensity [7]: 75400
B1: VHH12-04 humanized VHH-Fc antibody (Fc fusion)
chain: B2 chain with V60A, S62F

EC50 [1]: 0.68 nM
Maximum mean fluorescence intensity [1]: 18500
Kd [2]: 55.8 nM
koff [2]: 0.032 s⁻¹
kon [2]: 574000 M⁻¹ s⁻¹
EC50, activation activity for Jurkat cell [3]: 0.03 nM
Maximum fluorescence value [3]: 153000
EC50 [4]: 0.46 nM
Maximum mean fluorescence intensity [4]: 9180
EC50 [5]: 0.48 nM
Maximum mean fluorescence intensity [5]: 7950
EC50 [6]: 1.25 nM
Maximum mean fluorescence intensity [6]: 45500
Maximum mean fluorescence intensity [7]: 73200
B4: VHH12-07 humanized VHH-Fc antibody (Fc fusion)
chain: B2 chain with M117Q

EC50 [1]: 0.44 nM
Maximum mean fluorescence intensity [1]: 18300
Kd [2]: 48.6 nM
koff [2]: 0.0294 s⁻¹
kon [2]: 605000 M⁻¹ s⁻¹
EC50, activation activity for Jurkat cell [3]: 0.01 nM
Maximum fluorescence value [3]: 142000
EC50 [4]: 0.31 nM
Maximum mean fluorescence intensity [4]: 9010
EC50 [5]: 0.32 nM
Maximum mean fluorescence intensity [5]: 7920
EC50 [6]: 0.98 nM
Maximum mean fluorescence intensity [6]: 52100
Maximum mean fluorescence intensity [7]: 77300
B5: VHH12-08 humanized VHH-Fc antibody (Fc fusion)
chain: B2 chain with V60A, S62F, D72V
